B1: ELF3 (parent)
chain: LSKEYWDCLEGKKSKHAPRGTHLW

Variants of: B1
Assay: protein stability index of a GFP-peptide fusion (GPS, HEK-293T) (PSI 1-6); higher = more stable
Settings: c terminus: a fixed tail appended
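Note: lentivirally expressed fusions sorted by FACS into six bins by GFP to DsRed ratio, PSI derived from sequencing read proportions per bin multiplied by bin number.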

Protein stability index: each site, then its substitutions
K15: P 2.53, I 2.61, T 3.26, V 2.64, F 2.74, H 2.52
R19: M 2.83, N 2.83, C 2.6, G 2.68, S 3.29
K3: R 2.93, H 2.78, P 2.56, S 2.61, E 2.97, T 2.83, M 2.33
W24: G 4.07, L 3.3, V 2.96, Y 2.9, N 3.64, Q 3.8, S 4.08
H16: E 3.14, D 3.25, R 2.4, Q 2.86
E10: V 2.28, Q 2.73, F 2.08, A 2.52, P 2.16, K 2.18, G 2.37, N 2.55
S14: E 3.16, K 3.08, F 1.99, T 3.13, G 2.77, W 3.31, C 2.1, P 2.94, H 2.5
D7: E 2.77, Q 3, N 2.96, A 2.28, R 1.65, L 2.26
A17: F 2.78, R 2.38, S 3.12, N 2.99
H22: Q 3.05, V 2.43, P 3.03, W 1.95, E 3.29
P18: N 3.36, D 3, Q 2.96, R 2.34, H 3.24, K 3.39, I 2.6, S 3.13, C 2.53
L1: S 2.67, H 2.16, D 3.2, K 3.02, G 3.33, Q 2.71
E4: F 2.13, K 2.11, D 2.8, Y 2.16, I 2.65, S 2.38, N 2.84, T 2.87
G11: C 2.27, Q 2.69, I 2.29, L 2.71, T 2.98
L9: V 3.83, D 3.22, A 3.38, T 2.93, R 2.89, S 3.31, Q 3.71, N 3.81, C 3.3, W 2.27
Y5: M 3.38, N 3.45, T 2.66, E 3.62, V 2.34, P 3.37, A 3.23, W 2.66, L 2.19
S2: K 2.28, M 2.48, G 3.12, C 2.29, I 2.26, Q 2.78, R 2.48, D 3.11, E 3.59
T21: Y 2.37, G 2.54, I 2.19, W 2.04, A 3.4, L 2.02, V 1.8, S 2.24, D 3.45
K13: W 2.92, A 2.76, Q 3.17, N 2.36, I 2.22, R 2.87
C8: D 3.97, L 3.08, W 2.17, R 3.2, F 2.81, K 3.73, I 2.66, M 3.48, G 3.2
W6: I 2.96, Q 3.43, T 3.97, R 3.39, N 3.42, H 2.33
G20: S 3.15, K 2.59, T 2.64, C 2.73, L 2.55, N 2.74, D 2.96
K12: Y 1.88, P 2.96, V 2.23, R 2.35, T 2.43, A 2.54, Q 2.99, H 2.52
L23: E 4.03, D 4.24, K 3.29, F 2.93, A 3.24

From the supplement of paper PMC10567573
